The text below walks through data of US10780117.

The data set deals with Myc-tagged CRT expressed in J774 cells.
Sequence of Myc-tagged CRT expressed in J774 cells (P27797 18-417): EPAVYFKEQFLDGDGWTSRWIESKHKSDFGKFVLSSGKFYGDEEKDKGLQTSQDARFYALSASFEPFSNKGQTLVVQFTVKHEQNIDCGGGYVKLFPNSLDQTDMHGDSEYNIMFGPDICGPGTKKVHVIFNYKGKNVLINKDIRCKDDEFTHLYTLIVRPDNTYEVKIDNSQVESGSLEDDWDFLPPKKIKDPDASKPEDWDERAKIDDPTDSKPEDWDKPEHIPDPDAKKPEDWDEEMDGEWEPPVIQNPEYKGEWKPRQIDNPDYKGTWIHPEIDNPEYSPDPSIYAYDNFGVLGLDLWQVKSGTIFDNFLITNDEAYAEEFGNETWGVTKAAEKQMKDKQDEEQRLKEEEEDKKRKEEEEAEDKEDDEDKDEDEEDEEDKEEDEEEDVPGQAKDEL

B1: Bruton's tyrosine kinase (Btk) in J774 mouse macrophage cells (protein)
chain: AAVILESIFLKRSQQKKKTSPLNFKKRLFLLTVHKLSYYEYDFERGRRGSKKGSIDVEKITCVETVIPEKNPPPERQIPRRGEESSEMEQISIIERFPYPFQVVYDEGPLYVFSPTEELRKRWIHQLKNVIRYNSDLVQKYHPCFWIDGQYLCCSQTAKNAMGCQILENRNGSLKPGSSHRKTKKPLPPTPEEDQILKKPLPPEPTAAPISTTELKKVVALYDYMPMNANDLQLRKGEEYFILEESNLPWWRARDKNGQEGYIPSNYITEAEDSIEMYEWYSKHMTRSQAEQLLKQEGKEGGFIVRDSSKAGKYTVSVFAKSTGEPQGVIRHYVVCSTPQSQYYLAEKHLFSTIPELINYHQHNSAGLISRLKYPVSKQNKNAPSTAGLGYGSWEIDPKDLTFLKELGTGQFGVVKYGKWRGQYDVAIKMIREGSMSEDEFIEEAKVMMNLSHEKLVQLYGVCTKQRPIFIITEYMANGCLLNYLREMRHRFQTQQLLEMCKDVCEAMEYLESKQFLHRDLAARNCLVNDQGVVKVSDFGLSRYVLDDEYTSSVGSKFPVRWSPPEVLMYSKFSSKSDIWAFGVLMWEIYSLGKMPYERFTNSETAEHIAQGLRLYRPHLASERVYTIMYSCWHEKADERPSFKILLSNILDVMDEES
As for B1, the “tyrosine phosphorylation of immunoprecipitated myc-CRT (immunoblot with anti-phosphotyrosine antibody)” value is on record as “Immunoblot showing CRT phosphorylation upon Btk activation”.
